Data reported in patent US20200115460A1 (TEIJIN PHARMA, published 2020).

Columns and labels:
mouse IGF-I receptor [1] = molecular target: T1, mouse IGF-I receptor (mouse, UniProt Q60751 31-1373); experiment: Cell ELISA on P3U1 cells expressing the receptor
T1 construct: Expressed on transfected P3U1 cells; also called NP_034643

rat IGF-I receptor [2] = molecular target: T2, rat IGF-I receptor (rat, UniProt P24062 31-1370); experiment: Cell ELISA on P3U1 cells expressing the receptor
T2 construct: Expressed on transfected P3U1 cells; also called NP_494694

human insulin receptor = molecular target: T3, human insulin receptor (human, UniProt P06213 28-1382); experiment: Cell ELISA on HEK 293T cells expressing human insulin receptor
T3 construct: whole, on cells; Expressed on transfected HEK 293T cells; also called INSR; hINSR
Method: The HEK 293T cells after the lipofection were added to a 96-well plate (coated with poly-D-lysine) at a concentration of 0.8×10⁵ cells/well (about 180 μL/well) and were immobilized with 10% buffered formalin (Mildform® 10 NM, Wako), followed by blocking with phosphate buffer containing 3% BSA. The plate was used in ELISA.
In ELISA, antibody solutions (30 μL) adjusted to predetermined concentrations with 0.1% skimmed milk/3% BSA/PBS were added to respective wells and were subjected to reaction at room temperature for about 1 hour. After washing with a washing liquid (tris buffer containing Tween) twice, anti-mouse-IgG antibody-ALP conjugate solutions (30 μL) adjusted to predetermined concentrations with 0.1% skimmed milk/3% BSA/PBS were added to respective wells and were subjected to reaction at room temperature for about 1 hour. After washing with a washing liquid twice, 100 μL of a substrate (PNPP) was added to each well to start the reaction.

[3] = molecular target: T4, recombinant human IGF-I receptor His tag (305-GR-050, R&D SYSTEMS) (human, UniProt P08069 31-932, limits assumed); experiment: SPR, Biacore T200
T4 construct: Bought protein, captured on an anti-His antibody chip; also called IGF-IR-His; not shown: His tag
Method: The sensor chip CM3 immobilized with the anti-His monoclonal antibody was set to Biacore T200, the reaction temperature was set to 36° C., and a running buffer (HBS-EP+, BR-1006-69, GE) was fed at a flow rate 30 μL/min. The amount of the binding ligand was set to about 100 RU, and IGF-IR-His (0.5 to 2×10⁻⁸ mol/L) was added to the sensor chip to be captured by the anti-His monoclonal antibody. Ctrl IgG2a (10 nmol/L) was allowed to react for 1 minute, and HBS-EP+ was fed at a flow rate of 30 μL/min for at least 10 minutes. The analyte and HBS-EP+ were added to flow cells (1 and 2) and flow cells (3 and 4), respectively.
The reaction conditions were set to a binding time of 600 seconds and a dissociation time of 600 seconds. After completion of the reaction, washing was performed with regeneration buffer 1 (0.2% SDS), regeneration buffer 2 (100 mmol/L Tris-HCl (pH 8.5), 1 mol/L NaCl, 15 mmol/L MgCl₂), and regeneration buffer 3 (10 mmol/L glycine-HCl (pH 1.5)) for 1 minute each at a flow rate of 30 μL/min.

mouse IGF-I receptor [4] = molecular target: T1, mouse IGF-I receptor; experiment: Cell ELISA, 10 nM antibody, fixed P3U1 cells expressing the receptor
Method: (§1) After the lipofection, the P3U1 cells were cultured at least overnight and were added to a 96-well plate (coated with poly-D-lysine) at a concentration of 0.8×10⁵ cells/well and immobilized with 10% buffered formalin (Mildform® 10 NM, Wako), followed by blocking with phosphate buffer containing 3% BSA. The resulting plate was used for ELISA.
(§2) After washing with a washing liquid twice, anti-mouse-IgG antibody-HRP conjugate solutions (30 μL) adjusted to predetermined concentrations with 0.1% skimmed milk/3% BSA/PBS were added to respective wells and were subjected to reaction at room temperature for about 1 hour. After washing with a washing liquid twice, 50 μL of a substrate (TMB) was added to each well to start the reaction. After about 20 minutes, 50 μL of 0.5 M sulfuric acid was added to each well. The absorbances at 450 nm and 550 nm were measured, and the difference between absorbance values at 450 nm and 550 nm was calculated.

[5] = molecular target: T5, cynomolgus monkey IGF-I receptor (cynomolgus monkey, UniProt P08069 31-1367 (human entry)); experiment: as above
T5 construct: Expressed on transfected P3U1 cells; also called NP_001248281
Method: as §1, §2

rat IGF-I receptor [6] = molecular target: T2, rat IGF-I receptor; experiment: as above
Method: as §1, §2

human IGF-I receptor [7] = molecular target: T6, human IGF-I receptor (human, UniProt P08069 31-1367); experiment: as above
T6 construct: Expressed on transfected P3U1 or HEK 293T cells, or native on human myoblasts; also called hIGFIR; IGF-I receptor of human (NP_000866)
Method: as §1, §2

rabbit IGF-I receptor = molecular target: T7, rabbit IGF-I receptor (rabbit); experiment: as above
T7 construct: Expressed on transfected P3U1 cells; also called XP_017193273
Method: as §1, §2

[8] = molecular target: T8, guinea pig IGF-I receptor (guinea pig, UniProt P08069 31-1367 (human entry)); experiment: as above
T8 construct: Expressed on transfected P3U1 cells, or native on guinea pig myoblasts; also called XP_003475316
Method: as §1, §2

human IGF-I receptor [9] = molecular target: T6, human IGF-I receptor; experiment: cell-based or functional assay
[10] = molecular target: T8, guinea pig IGF-I receptor; experiment: cell-based or functional assay

T2 sequence (P24062 31-1370 limits assumed): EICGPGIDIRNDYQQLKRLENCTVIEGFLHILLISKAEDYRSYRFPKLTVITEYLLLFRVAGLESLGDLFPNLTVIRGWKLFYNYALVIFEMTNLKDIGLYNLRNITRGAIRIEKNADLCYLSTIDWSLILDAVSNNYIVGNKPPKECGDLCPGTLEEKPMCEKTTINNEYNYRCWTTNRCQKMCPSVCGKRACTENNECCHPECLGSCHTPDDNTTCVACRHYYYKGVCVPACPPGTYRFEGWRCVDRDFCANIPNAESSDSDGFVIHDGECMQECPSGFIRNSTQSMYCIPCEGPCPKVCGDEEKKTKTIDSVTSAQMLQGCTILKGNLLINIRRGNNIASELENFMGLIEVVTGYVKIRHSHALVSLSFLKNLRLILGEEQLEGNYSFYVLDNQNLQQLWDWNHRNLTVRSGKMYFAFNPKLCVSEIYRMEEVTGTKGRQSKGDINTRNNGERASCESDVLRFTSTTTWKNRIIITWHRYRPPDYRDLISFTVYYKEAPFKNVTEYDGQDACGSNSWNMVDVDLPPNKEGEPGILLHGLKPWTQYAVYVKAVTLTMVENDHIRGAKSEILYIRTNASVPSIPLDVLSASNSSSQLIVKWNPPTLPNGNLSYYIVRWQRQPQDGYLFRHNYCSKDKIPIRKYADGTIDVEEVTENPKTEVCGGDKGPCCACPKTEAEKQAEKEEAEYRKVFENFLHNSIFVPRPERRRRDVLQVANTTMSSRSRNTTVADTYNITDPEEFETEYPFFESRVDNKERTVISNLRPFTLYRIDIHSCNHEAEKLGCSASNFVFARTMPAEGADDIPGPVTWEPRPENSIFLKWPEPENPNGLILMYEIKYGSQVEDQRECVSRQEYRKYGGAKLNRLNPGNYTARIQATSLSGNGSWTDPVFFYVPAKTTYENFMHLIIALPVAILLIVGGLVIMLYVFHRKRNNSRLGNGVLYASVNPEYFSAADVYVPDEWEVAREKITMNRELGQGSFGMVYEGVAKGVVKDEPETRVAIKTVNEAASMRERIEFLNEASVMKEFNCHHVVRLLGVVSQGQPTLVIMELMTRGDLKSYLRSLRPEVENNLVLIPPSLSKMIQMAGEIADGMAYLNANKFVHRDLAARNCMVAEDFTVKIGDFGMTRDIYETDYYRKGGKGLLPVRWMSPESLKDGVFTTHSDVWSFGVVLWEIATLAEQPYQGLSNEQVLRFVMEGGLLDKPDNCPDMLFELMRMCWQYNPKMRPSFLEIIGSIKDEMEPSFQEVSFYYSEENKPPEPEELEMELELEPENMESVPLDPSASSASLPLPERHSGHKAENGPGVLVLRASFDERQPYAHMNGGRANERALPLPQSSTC
T1 sequence (Q60751 other isoform, or with tags, fused parts or gaps limits assumed): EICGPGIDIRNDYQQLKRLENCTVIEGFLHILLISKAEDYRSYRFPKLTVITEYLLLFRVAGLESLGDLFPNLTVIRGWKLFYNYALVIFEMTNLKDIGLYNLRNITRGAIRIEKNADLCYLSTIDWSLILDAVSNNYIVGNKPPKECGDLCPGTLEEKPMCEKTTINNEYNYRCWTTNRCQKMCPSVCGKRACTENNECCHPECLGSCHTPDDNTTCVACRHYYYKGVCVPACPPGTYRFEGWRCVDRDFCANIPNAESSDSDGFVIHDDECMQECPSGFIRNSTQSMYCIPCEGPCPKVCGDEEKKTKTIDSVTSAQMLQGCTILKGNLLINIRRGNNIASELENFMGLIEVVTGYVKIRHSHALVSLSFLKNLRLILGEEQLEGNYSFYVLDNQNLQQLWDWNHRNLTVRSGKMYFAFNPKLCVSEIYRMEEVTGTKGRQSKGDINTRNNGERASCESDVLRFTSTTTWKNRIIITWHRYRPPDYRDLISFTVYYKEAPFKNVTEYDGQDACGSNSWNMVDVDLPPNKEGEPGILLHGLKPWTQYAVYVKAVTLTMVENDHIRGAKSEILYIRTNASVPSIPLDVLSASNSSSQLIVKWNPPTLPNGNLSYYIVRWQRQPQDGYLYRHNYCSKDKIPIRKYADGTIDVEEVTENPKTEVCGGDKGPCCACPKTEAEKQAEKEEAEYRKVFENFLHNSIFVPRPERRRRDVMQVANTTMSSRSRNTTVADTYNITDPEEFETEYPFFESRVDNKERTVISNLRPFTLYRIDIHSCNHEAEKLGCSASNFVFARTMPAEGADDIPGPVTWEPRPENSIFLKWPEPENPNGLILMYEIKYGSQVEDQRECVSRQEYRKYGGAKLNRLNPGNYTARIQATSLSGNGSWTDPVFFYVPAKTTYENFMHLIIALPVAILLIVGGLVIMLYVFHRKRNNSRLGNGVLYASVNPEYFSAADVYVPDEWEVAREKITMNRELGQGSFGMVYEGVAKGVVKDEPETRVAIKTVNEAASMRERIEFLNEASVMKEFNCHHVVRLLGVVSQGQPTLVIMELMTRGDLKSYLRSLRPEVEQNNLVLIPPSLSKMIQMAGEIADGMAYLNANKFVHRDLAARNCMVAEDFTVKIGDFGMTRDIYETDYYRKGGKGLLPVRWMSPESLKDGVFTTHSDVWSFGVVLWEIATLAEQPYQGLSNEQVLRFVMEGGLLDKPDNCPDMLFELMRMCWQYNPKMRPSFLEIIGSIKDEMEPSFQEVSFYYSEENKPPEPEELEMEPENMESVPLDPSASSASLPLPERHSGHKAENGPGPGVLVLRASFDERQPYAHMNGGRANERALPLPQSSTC
T7 sequence (chain, as listed by the source limits assumed): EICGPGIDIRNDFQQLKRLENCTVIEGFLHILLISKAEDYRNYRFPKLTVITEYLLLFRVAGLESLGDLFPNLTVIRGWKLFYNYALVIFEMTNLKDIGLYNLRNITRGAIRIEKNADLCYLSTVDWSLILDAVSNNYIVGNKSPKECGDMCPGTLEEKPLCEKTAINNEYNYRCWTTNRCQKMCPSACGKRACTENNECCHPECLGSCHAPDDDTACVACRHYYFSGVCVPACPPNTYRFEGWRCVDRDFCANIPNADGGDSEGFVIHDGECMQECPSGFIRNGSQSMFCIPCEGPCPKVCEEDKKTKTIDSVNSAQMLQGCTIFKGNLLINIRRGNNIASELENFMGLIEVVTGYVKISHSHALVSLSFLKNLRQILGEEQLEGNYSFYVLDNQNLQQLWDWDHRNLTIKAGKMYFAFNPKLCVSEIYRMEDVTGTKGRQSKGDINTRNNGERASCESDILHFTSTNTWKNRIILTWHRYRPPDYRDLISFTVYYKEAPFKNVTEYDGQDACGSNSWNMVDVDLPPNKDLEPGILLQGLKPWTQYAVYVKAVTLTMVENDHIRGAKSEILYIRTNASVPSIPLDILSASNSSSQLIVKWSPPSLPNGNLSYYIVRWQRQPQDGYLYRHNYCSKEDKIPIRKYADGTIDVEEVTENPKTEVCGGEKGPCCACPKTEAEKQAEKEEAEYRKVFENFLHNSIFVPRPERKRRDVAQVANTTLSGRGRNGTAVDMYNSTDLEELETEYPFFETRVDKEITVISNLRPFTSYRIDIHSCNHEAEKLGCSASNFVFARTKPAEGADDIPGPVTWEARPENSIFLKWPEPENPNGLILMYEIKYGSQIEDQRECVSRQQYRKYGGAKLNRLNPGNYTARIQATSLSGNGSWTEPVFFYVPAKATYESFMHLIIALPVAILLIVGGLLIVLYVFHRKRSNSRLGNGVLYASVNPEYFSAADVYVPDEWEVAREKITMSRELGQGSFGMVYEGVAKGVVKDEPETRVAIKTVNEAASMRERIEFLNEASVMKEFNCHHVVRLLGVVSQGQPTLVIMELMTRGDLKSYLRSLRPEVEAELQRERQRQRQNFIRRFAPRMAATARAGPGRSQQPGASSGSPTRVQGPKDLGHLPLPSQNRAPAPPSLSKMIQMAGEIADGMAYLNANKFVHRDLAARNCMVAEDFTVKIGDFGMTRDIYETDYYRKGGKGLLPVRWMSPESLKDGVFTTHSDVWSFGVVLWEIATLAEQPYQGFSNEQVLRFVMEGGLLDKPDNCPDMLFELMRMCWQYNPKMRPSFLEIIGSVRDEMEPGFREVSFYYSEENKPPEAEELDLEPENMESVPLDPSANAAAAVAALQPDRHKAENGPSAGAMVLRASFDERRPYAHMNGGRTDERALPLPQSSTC

B1: IGF11-16 (antibody, mouse IgG1, kappa, V domains shown)
VH: QIQLQQPGAELVKPGASVKLSCKAPGYTFTSYWMHWVKQRPGQGLEWIGETNPSNSVTNYNEKFKSKATLTVDKSSSTAYMQLSSLTSEDSAVYYCTIGRGRGFAYWGQGTLVTVSA
VL: DIQMNQSPSSLSASLGDTITITCRASQNINFWLSWCQQKPGNIPKLLIYKASNLHTGVPSRFSGSGSGTDFTLTISSLQPEDIATYYCLQGQSYPYTFGGGTKLEIKR
notes: no cleavage site is stated; also called IGF-I receptor agonist antibody; IGF11-16 antibody
Mouse IGF-I receptor [1]
  binding result: no binding (tested: 10 nM)
Rat IGF-I receptor [2]
  binding result: no binding (tested: 10 nM)
Human insulin receptor
  binding result: no binding (tested: 0.5 nM and 5 nM; 1.5-fold of Mock cells)
[3]
  KD relative to that of IGF-I: < 0.02 fold of IGF-I
  ka relative to that of IGF-I: ~0.2 fold of IGF-I
  kd relative to that of IGF-I: < 0.001 fold of IGF-I
Mouse IGF-I receptor [4]
  Avidity (absorbance difference 450-550 nm, Mock cells = 1): 0.9 fold of Mock cells
[5]
  Avidity (absorbance difference 450-550 nm, Mock cells = 1): 5.4 fold of Mock cells
Rat IGF-I receptor [6]
  Avidity (absorbance difference 450-550 nm, Mock cells = 1): 1 fold of Mock cells
Human IGF-I receptor [7]
  Avidity (absorbance difference 450-550 nm, Mock cells = 1): 5.4 fold of Mock cells
Rabbit IGF-I receptor
  Avidity (absorbance difference 450-550 nm, Mock cells = 1): 5.4 fold of Mock cells
[8]
  Avidity (absorbance difference 450-550 nm, Mock cells = 1): 5.3 fold of Mock cells
Human IGF-I receptor [9]
  EC50 of the myoblast proliferative activity, human myoblasts: 4 pM
[10]
  EC50 of the myoblast proliferative activity, guinea pig myoblasts: 4 pM
